In patent publication US20190359693A1:

Legend:
[1] = target: hemagglutinin (HA) of influenza A/Fukui/45/04 (H3N2) (influenza A virus); test: cell-based or functional assay
[2] = target: hemagglutinin (HA) of influenza A/Jiangxi/346/2013 (H10N8) (influenza A virus); test: cell-based or functional assay
[3] = target: hemagglutinin (HA) of influenza A/Shanghai/2/13 (H7N9) (influenza A virus); test: cell-based or functional assay
[4] = target: hemagglutinin (HA) of influenza A/Env/HK/MPU3156/05 (H1N2) (influenza A virus); test: cell-based or functional assay
[5] = target: hemagglutinin (HA) of influenza A/Christchurch/16/10 (H1N1) (influenza A virus); test: cell-based or functional assay
[6] = target: hemagglutinin (HA) of influenza A/Indonesia/5/05 (H5N1) (influenza A virus); test: cell-based or functional assay
[7] = target: hemagglutinin (HA) of influenza A/Victoria/210/09 (H3N2) (influenza A virus); test: cell-based or functional assay
[8] = target: hemagglutinin (HA) of influenza A/Env/HK/MPU3156/05 (H2N2) (influenza A virus); test: cell-based or functional assay
[9] = target: hemagglutinin (HA) of influenza A/Northern Shoveler/MPE2531/08 (H10N9) (influenza A virus); test: cell-based or functional assay
[10] = target: hemagglutinin (HA) of influenza A/HK/466419/09 (H9N2) (influenza A virus); test: cell-based or functional assay
[11] = target: hemagglutinin (HA) of influenza A/Brisbane/59/07 (H1N1) (influenza A virus); test: cell-based or functional assay
[12] = target: hemagglutinin (HA) of influenza A/Panama/2007/99 (H3N2) (influenza A virus); test: cell-based or functional assay
[13] = target: hemagglutinin (HA) of influenza A/Chick/Germany/N/49 (H10N7) (influenza A virus); test: cell-based or functional assay
[14] = target: hemagglutinin (HA) of influenza A/Northern Pintail/MPB1368/06 (H4N1) (influenza A virus); test: cell-based or functional assay
[15] = target: hemagglutinin (HA) of influenza A/WF/HK/MPA892/06 (H4) (influenza A virus); test: cell-based or functional assay
[16] = target: hemagglutinin (HA) of influenza A/Mallard/Astrakhan/263/1982 (H14N5) (influenza A virus); test: cell-based or functional assay
[17] = target: hemagglutinin (HA) of influenza A/Anhui/1/13 (H7N9) (influenza A virus); test: cell-based or functional assay
[18] = target: hemagglutinin (HA) of influenza A/WSN/33 (H1N1) (influenza A virus) (UniProt P03454); test: cell-based or functional assay
[19] = target: hemagglutinin (HA) of influenza A/Vietnam/1194/04 (H5N1) (influenza A virus); test: cell-based or functional assay
[20] = target: hemagglutinin (HA) of influenza A/New Caledonia/20/99 (H1N1) (influenza A virus); test: cell-based or functional assay
[21] = target: hemagglutinin (HA) of influenza B/Lee/40 (Old) (influenza B virus) (UniProt P03460); test: cell-based or functional assay
[22] = target: hemagglutinin (HA) of influenza A/Netherlands/219/2003 (H7N7) (influenza A virus); test: cell-based or functional assay
[23] = target: hemagglutinin (HA) of influenza A/Eurasian Wigeon/MPG1884/09 (H6N1) (influenza A virus); test: cell-based or functional assay
[24] = target: hemagglutinin (HA) of influenza A/Perth/16/09 (H3N2) (influenza A virus); test: cell-based or functional assay
[25] = target: hemagglutinin (HA) of influenza A/California/07/09 (H1N1) (influenza A virus); test: cell-based or functional assay
[26] = target: hemagglutinin (HA) of influenza A/Common Teal/MPF139/07 (H7N7) (influenza A virus); test: cell-based or functional assay
[27] = target: hemagglutinin (HA) of influenza A/Common Teal/MPH11/08 (H10N3) (influenza A virus); test: cell-based or functional assay
[28] = target: hemagglutinin (HA) of influenza A/NIBRG/60 (A/mallard/Netherlands/12/00) (H7N3) (influenza A virus); test: cell-based or functional assay
[29] = target: hemagglutinin (HA) of influenza A/Env/MPK659/09 (H12N5) (influenza A virus); test: cell-based or functional assay
[30] = target: hemagglutinin (HA) of influenza A/Wisconsin/67/05 (H3N2) (influenza A virus); test: cell-based or functional assay
[31] = target: hemagglutinin (HA) of influenza A/Great Cormorant/MPB1683/06 (H4N6) (influenza A virus); test: cell-based or functional assay
[32] = target: hemagglutinin (HA) of influenza A/AnnArbor/23/57 (H2N2) (influenza A virus); test: cell-based or functional assay
[33] = target: hemagglutinin (HA) of influenza A/HK/1174/99 (H3N2) (influenza A virus); test: cell-based or functional assay
[34] = target: hemagglutinin (HA) of influenza A/PR8 H5N1 HK97 (H5N1) (influenza A virus); test: cell-based or functional assay
[35] = target: hemagglutinin (HA) of influenza A/Aichi/2/68 (H3N2) (influenza A virus) (UniProt P03437); test: cell-based or functional assay
[36] = target: hemagglutinin (HA) of influenza B/Malaysia/2506/04 (Victoria) (influenza B virus); test: cell-based or functional assay
[37] = target: recombinant HA of H3N2 A/Wisconsin/67/05 (influenza A virus); test: biolayer interferometry (Octet), steady-state fit, geometric mean, pH 7.4
[38] = target: recombinant HA of B/Brisbane/60/08 (Victoria) (influenza B virus); test: as above
[39] = target: recombinant HA of H3N2 A/HK/1/68-MA (influenza A virus); test: as above
[40] = target: recombinant HA of H7N3 A/NIBRG/60 (A/mallard/NL/12/00) (influenza A virus); test: as above
[41] = target: recombinant HA of H1N1 A/Brisbane/59/07 (influenza A virus); test: as above
[42] = target: recombinant HA of H7N9 A/Hangzhou/1/2013 (influenza A virus); test: as above

In the case of MD3606 (Fc fusion), the Average neutralization titers [1] is reported as 40.5 nM, the Average neutralization titers [2] is reported as 18.3 nM and the Average neutralization titers [3] is reported as 22.8 nM. The Average neutralization titers [4] was 2.6 nM, the Average neutralization titers [5] was 1 nM and the Average neutralization titers [6] was 11.5 nM. It also gave an Average neutralization titers [7] of 6.5 nM, an Average neutralization titers [8] of 9.3 nM and an Average neutralization titers [9] of 20.7 nM. The Average neutralization titers [10] was 5.3 nM, the Average neutralization titers [11] was 5.3 nM and the Average neutralization titers [12] was 40.5 nM. For the same substance, the Average neutralization titers [13] was 10.2 nM, the Average neutralization titers [14] was 2.6 nM and the Average neutralization titers [15] was 3 nM. It also gave an Average neutralization titers [16] of 12.9 nM, an Average neutralization titers [17] of 38.2 nM and an Average neutralization titers [18] of 2 nM. The Average neutralization titers [19] was 5.7 nM, the Average neutralization titers [20] was 2.6 nM and the Average neutralization titers [21] was 3.3 nM. It also gave an Average neutralization titers [22] of 20.4 nM, an Average neutralization titers [23] of 11.6 nM and an Average neutralization titers [24] of 5.7 nM. For the same substance, the Average neutralization titers [25] was 1.8 nM, the Average neutralization titers [26] was 26.3 nM and the Average neutralization titers [27] was 11.3 nM. For the same substance, the Average neutralization titers [28] was 12.9 nM, the Average neutralization titers [29] was > 1000 nM and the ADCC induction (EC50 grade, FcγRIIIa reporter bioassay) [30] was < 0.1 µg/mL. It also gave an Average neutralization titers [30] of 6.5 nM, an Average neutralization titers [31] of 3.1 nM and an Average neutralization titers [32] of 13.2 nM. It also gave an Average neutralization titers [33] of 23 nM, an Average neutralization titers [34] of 6.5 nM and an Average neutralization titers [35] of 32.2 nM. It also gave an Average neutralization titers [36] of 2.6 nM, a Kd [37] of 0.6 nM and a Kd [38] of 3.8 nM. The Kd [39] was 1.4 nM, the Kd [40] was 1.1 nM and the Kd [41] was 2.2 nM. It also gave a Kd [42] of 1.2 nM.
